Test results as given in the nanobody polyreactivity screen of Harvey et al. (2022).

Experiment: yeast display, Sf9 membrane polyspecificity reagent, FACS + sequencing; frameworks hold sequencing errors
In short: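 Nanobodies from a synthetic yeast display library (Saccharomyces cerevisiae BJ5465), induced 36–48 hours with galactose, were stained 1 hour at 4 °C with 10% biotinylated, detergent-solubilized Sf9 membrane reagent, enriched on streptavidin microbeads, then FACS-sorted. Anti-HA (expression) and streptavidin (reagent binding) fluorescence set low and high (top ~1%) gates. Polyreactivity labels come from the gate of origin. Genes were colony-PCR amplified, MiSeq 2 × 250 sequenced and filtered by CDR length.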

Sequence	polyreactivity (PSR sort gate)
QVQLVESGGGLVQAGGSLRLSCAASGFIIDSYAMGWYRQAPGKERELVATITKGGGRTYYADSVKGRFTISRDNAKNTVYLQMNSLKPEDTAVYYCNARGFSRRKGLDYWGQGTQVTVSS	low polyreactivity
QVQLVESGGGLVQAGGSLRLSCAASGFIIGDYAMGWYRQAPGTERELVAAIFSVGSTYYADSVKGRFTISRDNAKNTVYLQMNSLKPEDTAVYYCAARFARYDWSMYYWGQGTQVTVSS	low polyreactivity
QVQLVESGGGLVQAGGSLRLSCAASGFIIIGNAMVWYRQAPGKERELVAAISRRGGSTYYADSVKGRFTISRDNAKNTVYLQMNSLKPEDTAVYYCATDPGARVHYPTGDYWGQGTQVTLSS	high polyreactivity
QVQLVESGGGLVQAGGSLRLSCAASGFIIIGYVMGWYRQAPGKERELVAAITSSGGSTYYADSVKGRFTISRDHAKNTVYLQMNSLKPEDTAVYYCAAEYYLLWSGMEYWGQGTQVTVSS	low polyreactivity
QVQLVESGGGLVQAGGSLRLSCAASGFIILINVMGGYRQAPGNERELVAVITGGGTTNYADSVKGRFTISRDNAKNTVYLQMYSLKPEDTAVYYCAADWIVVSEFGLDYHMDYWGQGSQVTVSS	low polyreactivity
QVQLVESGGGLVQAGGSLRLSCAASGFIILIYAMGWYRQAPGKERELVATIRYSGGRTYYADSVKGRFTISRDNAKNTVFLQMNSLKPEDTAVDYCAADGYPTLYDYWGQGTQVTVSS	high polyreactivity
QVQLVESGGGLVQAGGSLRLSCAASGFIIPGYAMGWYRQAPGKERELVAAISSGTSTYYADSVKGRFTISRDNAKNTVYLQMNSLKPEDTAVYYCAAETWYRFGYWGQGTQVTVSS	low polyreactivity
QVQLVESGGGLVQAGGSLRLSCAASGFIITQYAMGWYSQEPGKERELVAAISGNGGRTYYADSVKGRFTISRDNAKYTVYLHLISLKPEDTAVYYCAVTYYWYGVRYDYWGQCTQVTVSS	high polyreactivity
QVQLVESGGGLVQAGGSLRLSCAASGFIIVIYAMGWYIQAPGKERELVAAIRWRGGGTYYADSVKGRFTISRDNAKNTVYLQMNSLKPEDTAVYYCNADGWTYREEYWWRMDYWGLGTQVTVSS	low polyreactivity
QVQLVESGGGLVQAGGSLRLSCAASGFIIYGYVMGWYRQAPGKERELVAAINSSSGRTYYADSVKGRFTISRDNAKNTVYLQMNSLKPEDTAVYYCAAYYYGSYDGTPYDYWGQGTQVTVSS	low polyreactivity
QVQLVESGGGLVQAGGSLRLSCAASGFIIYRNARGWYRQAPGKERELVAGISSGGSTNYADSVKGRFTISRDNAKNTVYLQMTSLKPEDTADYYCATRVYALWFGRYDYWGQGTQVTVSS	high polyreactivity
QVQLVESGGGLVQAGGSLRLSCAASGFIKFYAMGWYRQAPGKERELVASISSGGRTNYADSVKGRFTISRDNAKNTVYLQMNSLKPEDTAVYYCAAIGWRTRSRFEYWGQGTQVTVSS	high polyreactivity
QVQLVESGGGLVQAGGSLRLSCAASGFILDTYGMGWYRQAPGKERELVAAISQSDVSTYYADSVKGRFTISRDNAKNTVSLQMNSLKPEDTAVYYCAADRAGLRWFWQLLYDYWGQGTQVTVSS	low polyreactivity
QVQLVESGGGLVQAGGSLRLSCAASGFILDYNAMGWYRQAPGKERELVATITGRGDRTYYADSVKGRFTISRDNAKNTVYLQMNSLKPEDTAVYYCAAAYLIYSDYGPAMDYWGQGTQVTVSS	low polyreactivity
QVQLVESGGGLVQAGGSLRLSCAASGFILDYNTMGWYRQAPGKERELVAAISSSGDTTYYADSVKGRFTISRDNAKNTVYLQMNSLKPEDTAVYYCGREYGDGYEYWGQGTQVTVSS	low polyreactivity
QVQLVESGGGLVQAGGSLRLSCAASGFILEPNAMGWYRQAPGKERELVATISFSGGGTYYADSVKGRFTISRDNAKNTVYLQMNSLKPEDTAVYYCAADWYYYVWWYDYWGQGTQVTVSS	high polyreactivity
QVQLVESGGGLVQAGGSLRLSCAASGFILGYYVMGWYRQAPGKERELVAAISSGGRTYYADSVKGRFTISRDNAKNTVYLQMNSLKPEDTAVYYCNAYAPRRRFDYWGQGTQVTVSS	high polyreactivity
QVQLVESGGGLVQAGGSLRLSCAASGFILLYYAMGWYRQAPGKERELVAAISWTGGRTYYADSVKGRFTISRDNAKNTVYLQMNSLKPEDTAVYYCNTVKFFGRKYGYWGQGTQVTVSS	low polyreactivity
QVQLVESGGGLVQAGGSLRLSCAASGFILPYYTMGWYRQAPGKDRELVAAITYSGASPFYADSVKGRFTISRVNAKNTVYLQMNSLKPEDTGVYYGANEWSGWYESPLDDGDYDYWGQGTEVTVSS	low polyreactivity
QVQLVESGGGLVQAGGSLRLSCAASGFILRQNVMGWYRQAPGKERELVAAISRSGGRTYYADSVKGRFTISRDNAMNTVYFQMNSLKPEDTAVDYCNAGRYNYTDDYWGQGTQVTVSS	high polyreactivity
QVQLVESGGGLVQAGGSLRLSCAASGFILVDYAMGWYRQAPGKERELVAAITYDGGSTYYADSVKGRFTISRDNAKNTVYLQMNSLKPEDTAVYYCAADYGYSQYILGQFRLEELDYWGQGTQVTVSS	low polyreactivity
QVQLVESGGGLVQAGGSLRLSCAASGFILYFNAMGWYRQAPGKERELVAAITTDGGSTYYADSVKGRFTISRDNAKNTVYLQMNSLKPEDTAVYYCAADASTWYTEEYWGQGTQVTVSS	low polyreactivity

Sequence	polyreactivity (PSR sort gate)
QVQLVESGGGLVQAGGSLRLSCAASGFILYTYAMGWYIQAPGKERELVADIDSGDGTYYADSVKGRFTISRDNAKNTVYLQMNSLKPEDTAVDYCAADYGGASEYGYWGQGTQVTVSS	low polyreactivity
QVQLVESGGGLVQAGGSLRLSCAASGFILYVNAMGWYRQAPGKERELVAGITSSGTSTYADSVKGRFTISRDNAKNTVYLQMNSLKPEDTAVYYCAALRRPYGARDYDYWGQGTQVTVSS	low polyreactivity
QVQLVESGGGLVQAGGSLRLSCAASGFILYYYAKGWYRPAPGKERELVAAISWSGDSTYYADSVKGRFTISRDNAKNTVYLQMNSLKPEDTAVYYCAATWQLTHRYYWGQGTQVTVSS	low polyreactivity
QVQLVESGGGLVQAGGSLRLSCAASGFISAYYALGWSRQAPGKERELVAGITRGGNTYYADSVKGRFTISRDNAKNTVYLQMNSLKPEDTAVYYCAAEGSHNSEYWGQVTQVTVSS	high polyreactivity
QVQLVESGGGLVQAGGSLRLSCAASGFISDVYAMGWSRQAPGKEREWVAVITWRGSTYYADSVKGRFTISRDNAKYTVYLQMNSLKPEDTAVYYCAAESQGDWAFDYWGQGTQVTVSS	low polyreactivity
QVQLVESGGGLVQAGGSLRLSCAASGFISDVYAMGWYRQAPGKERELVAVITWRGSTYYADSVKGRFTISRDNAKNTVYLQMNSLKPEDTAFYYCAAESQGDWAFDYWGQGTQVTVSS	low polyreactivity
QVQLVESGGGLVQAGGSLRLSCAASGFISDWYAMGWYRQAPGKERELVATIDWIGGSTYADSVKGRFTISRDNAKNTVYLQMNSLKPEDTAVYYCAADSYFIAWYGAHYAYDYWRQGTQVTVSS	low polyreactivity
QVQLVESGGGLVQAGGSLRLSCAASGFISGYYTMRWYRQAPGKARELVAVINSGGSTYYADSVKGRFTISRDNAKNTVYLQMNSLKPEDTAVYYCAKLGGKYSRYYYWGQGTQVTVSS	low polyreactivity
QVQLVESGGGLVQAGGSLRLSCAASGFISHYYAMGWYRQAPGKERELVAAIRISGDRTYYADSVKGRFTISRDNAKNTVYLQMNSLKPEDTAVYYCNAVWEYYGKSDYWGQGTQVTVSS	low polyreactivity
QVQLVESGGGLVQAGGSLRLSCAASGFISTYYAMGWYRQAPGKERELVAAISWNGGSTYYADSVKGRFTISRDNAKNTVYLQMNSLKPEDTAVYYCAAYLGKWRHFYSSDYDYWGQGTQVTVSS	low polyreactivity
QVQLVESGGGLVQAGGSLRLSCAASGFIVDYYAMGWYREAPGKERELVAAIDDSAGSTYYADSVKGRFTISRDNAKNTVYLQMNSLKPEDTAVYYCAADIYVEYDYWGQGTQVTVSS	low polyreactivity
QVQLVESGGGLVQAGGSLRLSCAASGFLFPKNAMGWSRQAPGTEMEWVAAISSGGARTYYADSVKGRFTISRDNAQNSVYEQMNSLKPEDTAVYYCAARTSPFWRGGGLDYWGQGTQVTVSS	high polyreactivity
QVQLVESGGGLVQAGGSLRLSCAASGFLPNAMGWYRQAPGKERELVAAISSRGGSTYYADSVKGRFTISRDNAKNTVYLQMISLKPEDTAVYYCAATYYGRDGYRYDYWGQGTQVTVSS	high polyreactivity
QVQLVESGGGLVQAGGSLRLSCAASGFNFDGNAMGWYRQEPGKEMELVARITWDDGSTYYADSVKGRFTISRDNAKNTVYLQMNSLKPEDTAVYYCNTDYGEYYSLDLLWWYIPYDYWGQGTQVTVSS	low polyreactivity
QVQLVESGGGLVQAGGSLRLSCAASGFNFEENAMGWYRQAPGKERELVAAINWSGGNTYYADSVKGRFTISRDNAKNTVYLQMNSLKPEDTAVYYCAAEYRSWSWRMDYWGQGTQVTVSS	high polyreactivity
QVQLVESGGGLVQAGGSLRLSCAASGFNFGYNALGRYRQAPGKEREMVAAISSGGSTYYADSVKGRFTISRDNAKNTVYLQMNSLQPEDTAVYYCAVELGYPIQSYALWWDFEYWGQGTQVTGSS	low polyreactivity
QVQLVESGGGLVQAGGSLRLSCAASGFNFRKYAMGWYRQAPGKERELVASITSGGGSTYYADSVKGRFTISRDNAKNTVYLQMNSLKPEDTAVYYCAAVAYTGGPRKLGFNYWGQGTQVTVSS	high polyreactivity
QVQLVESGGGLVQAGGSLRLSCAASGFNFVGNAMGWYRQAPGKERELVADITGSDGSTYYADSVKGRFTISRDNAKNTVYLQMNSLKPEDTAVYYCAASPPYKLVWWRRMDYWGQGTQVTVSS	low polyreactivity
QVQLVESGGGLVQAGGSLRLSCAASGFNFVRYAMGWYRQAPRKERELVAAITRRGGSTHYADSVKGRFTISRDNAKNTVYLQMNSLKPEDTAVYYCGAGRQYYYLDRFPRVQGDYWGQATQVTVSS	high polyreactivity
QVQLVESGGGLVQAGGSLRLSCAASGFNFWRYAMGWYRQAPGKERELVASITSTGGSTYYADSVKGRFTISRDNAKNTVYLQMNSLKPEDTAVYYCAADTFVWADWSWHYYWGQGTQVTVSS	high polyreactivity
QVQLVESGGGLVQAGGSLRLSCAASGFNFWRYAMGWYRQAPGKERELVAVITWSGTRTYYADSVKGRFTISRDNAKNTVYLQMNSLKPEDTAVYYCAALYYGFRLTYGYDYWGQGTQVTVSS	high polyreactivity
